{"source": "patent US8114412B2", "about": "“T. cruzi-derived neurotrophic agents and methods of use therefor” (priority 1999, dated 2012)", "molecules": {"B1": {"name": "TS-F: recombinant full catalytic domain of TS, amino acid residues 33-666, His-tagged, expressed in E. coli (protein, listed as Trypanosoma cruzi)", "chain": "ETQIAIKNSRVSSVSRVVDPTVIVKGNKLYVLVGSYYSSRSYWSSHGDARDWDILLAVGEVTKSTAGGKITASIKWGSPVSLKKFFPAEMEGMHTNQFLGGAGVAIVASNGNLVYPVQVTNKRKQVFSKIFYSEDDGKTWKFGKGRSDFGCSEPVALEWEGKLIINTRVDWKRRLVYESSDMEKPWVEAVGTVSRVWGPSPKSNQPGSQTSFTAVTIEGMRVMLFTHPLNFKGRCVRDRLNLWLTDNQRIYNVGQVSIGDENSAYSSVLYKDDKLYCLHEINTDEVYSLVFARLVGELRIIKSVLRSWKNWTATCPAFAPLLIQPLRRQRVVVVPLSPRLVLLAFCRQRLPKRMGGSYRCVNASTANAERVRNGLKFAGVGGGALWPVSQQGQNQRYRFANHAFTLVASVTIHEAPRAASPLLGASLDSSGGKKLLGLSYDEKHQWQPIYGSTPVTPTGSWETGKRYHLVLTMANKIGSVYIDGELLEGSGQTVVPDGRTPDISHFYVGGYKRSDMPTISHVTVNNVLLYNRRQLNTEEIRTLFLSQDLIGTEAHMDSSSDSSAHSTPSTPADSSAHSTPSTPVDSSAHSTPSTPADSSAHGTPSTPVDSSAHGTPSTPADSSAHGTPSTPVDS", "modifications": "His tag", "notes": "recombinant full catalytic domain of TS, amino acid residues 33-666, His-tagged, expressed in E. coli"}, "B2": {"name": "TS: T. cruzi trans-sialidase purified by immuno-affinity chromatography from supernatants of infected Vero cells (SEQ ID NO:2, SEQ ID NO:34) (protein, listed as Trypanosoma cruzi)", "chain": "MVAIADARYETSSENSLIDTVAKYSVDDGETWETQIAIKNSRVSSVSRVVDPTVIVKGNKLYVLVGSYYSSRSYWSSHGDARDWDILLAVGEVTKSTAGGKITASIKWGSPVSLKKFFPAEMEGMHTNQFLGGAGVAIVASNGNLVYPVQVTNKRKQVFSKIFYSEDDGKTWKFGKGRSDFGCSEPVALEWEGKLIINTRVDWKRRLVYESSDMEKPWVEAVGTVSRVWGPSPKSNQPGSQTSFTAVTIEGMRVMLFTHPLNFKGRCVRDRLNLWLTDNQRIYNVGQVSIGDENSAYSSVLYKDDKLYCLHEINTDEVYSLVFARLVGELRIIKSVLRSWKNWTATCPAFAPLLIQPLRRQRVVVVPLSPRLVLLAFCRQRLPKRMGGSYRCVNASTANAERVRNGLKFAGVGGGALWPVSQQGQNQRYRFANHAFTLVASVTIHEAPRAASPLLGASLDSSGGKKLLGLSYDEKHQWQPIYGSTPVTPTGSWETGKRYHLVLTMANKIGSVYIDGELLEGSGQTVVPDGRTPDISHFYVGGYKRSDMPTISHVTVNNVLLYNRRQLNTEEIRTLFLSQDLIGTEAHMDSSSDSSAHSTPSTPADSSAHSTPSTPVDSSAHSTPSTPADSSAHGTPSTPVDSSAHGTPSTPADSSAHGTPSTPVDSSAHSTPSTPVDSSAHSTPSTPVDSSAHGAPSTPADSSAHGTPSTPVDSSAHGTPSTPADSSAHSTPSTPADSSAHSTPSTPADSSAHSTPSTPVDSSAHGTPSTPADSSAHSTPSTPADSSAHGTPSTPVDSSAHSTPSTPVDSSAHGTPSTPVDSSAHSTPSTPVDSSAHGTPSTPVDSSAHSTPSTPADSSAHSTPSTPADSSAHGTPSTPVDSSAHSTPSTPADSSAHSTPSTPVDSSAHSTPSTPADSSAHGTPSTPVDSSAHGTPSTPADSSAHSTPSTPADSSAHSTPSTPADSSAHSTPSTPVDSSAHSTPSTPADSSAHSTPSTPADSSAHSTPSTPADSSAHSTPSTPVDSSAHSTPSTPADSSAHGTPSTPADSSAHSTPSTPVDSSAHSTPSTPADSSAHGTPSTPADSSAHSTPSTPADSSAHGTPSTPADSSAHSTPSTPAGSSANGTVLILPDGAALSTFSGGGLLLCACALLLHVFFMAVF"}}, "key": {"[1]": {"system": "Akt kinase in human Schwann cells", "assay": "Kinase assay of Akt in vitro (GSK-3α substrate) from Schwann cell lysates", "assay_type": "cell-based", "details": "CD 500 ng/ml, 2 minutes"}, "[2]": {"system": "Akt kinase in human Schwann cells", "assay": "Immunodetection of activated Akt (Ser473) in Schwann cells", "protocol": "Schwann cells, grown in 10% FCS to 70% confluency in 6-well plates, were switched to DMEM containing 0.1% FCS for 48 hours to reduce basal Akt phosphorylation. Then the cells were placed in serum-free DMEM medium for 2 hours and challenged with TS, CD or other test factors for predetermined periods of time. When the PI-3 kinase inhibitor LY294002 (Sigma) was used, the inhibitor was added to the serum-starved cells 30 minutes before challenge with TS or CD. Cell samples were lysed with lysis buffer (20 mM Tris, pH7.5, 150 mM NaCl, 1 mM EDTA, 1% Triton X-100 (t-Octylphenoxypolyethoxyethanol), 2.5 mM sodium pyrophosphate, 1 mM glycerophosphate, 1 mM Na3VO4, 1 μg/ml leupeptin and 1 mM Phenymethylsulfonyl fluoride (PMSF)). Samples (40 μg) were run on 10% SDS-Page, blotted to nitrocellulose paper and analyzed by Western (immuno) blot with monoclonal antibody specific for P-Ser473 of Akt (New England Biolabs). Reaction was visualized by chemiluminescence using the ECL kit (New England Nuclear).\nSchwann cells were seeded in 10% FCS to 50-70% confluency in 10 cm Petri dishes 24 h prior transfection, performed in serum-free DMEM. Cells were maintained in 10% FCS for 24 hr and then switched to medium containing 700 μg/ml G418 (Gibco BRL) and 2% FCS for 3 days and 0.1% FCS for another 4 days with CD added to some cell monolayers. After this cells were assessed for viability by Trypan blue exclusion and by DAPI staining. At the same time cell lysates were analyzed for Akt phosphoryltion by Western (immuno) blots with monoclonal antibody specific for P-Ser473 of Akt (New England Biolabs). Reaction was visualized by chemiluminescence using the ECL kit (New England Nuclear)."}, "DS-1 B-lymphoma cells": {"system": "DS-1 B-lymphoma cells", "assay": "Bioassay for IL-6 with IL-6 dependent DS-1 cells", "assay_type": "cell-based, human", "details": "conditioned media of PBMC or T-24 cells (TS 1 μg/ml, 24 hr) diluted into IL-6 free media; or TS 1 μg/ml directly", "method": "Bioassay for IL-6 was performed using IL-6 dependent human DS-1 cells (Bock et al., Cytokine 5: 480-489 (1993), ATCC Accession No. CRL-11102). Briefly, 1×10^4 cells/well were plated in 96-well plates and incubated for 24 hrs in IL-6-free medium (10% FCS in RPMI) containing several dilutions of TS-conditioned media or exogenous rIL-6. The cultures were pulsed with 0.5 μCi ^3H-thymidine for 4 hrs and harvested to determine radioactivity incorporation using a microplate scintillation instrument (Packard). In some studies, a neutralizing anti-IL-6 rabbit IgG or normal rabbit IgG (Endogen) was added to the dilutions of TS-conditioned prior to assaying for growth-stimulation of DS-1 cells. TS conditioned media was prepared by incubating PBMC or T-24 cells for 24 hr in 10% FCS/RPMI without (CM) or with (TS/CM) TS at 1 μg/ml. Supernatants were centrifuged at 1,000×g to remove cell debris and were kept frozen at −20° C. until use."}, "[3]": {"system": "human intestinal microvascular endothelial cells (HIMEC)", "assay": "Other cytokines and chemokines in HIMEC supernatants (ELISA)", "assay_type": "cell-based", "details": "24 hrs; bacterial LPS 50 ng/ml", "method": "(§1) Endothelial cells and T-24 cells were plated on 24-well plates at a density of 1×10^3 cells/well, while peripheral blood mononuclear cells (PBMC) were plated in the similar wells at 1×10^6/well. Triplicat cultures of cells were incubated test agents for a predetermined amount of time. […] Cytokines and chemokines released in the culture supernatants were measured by ELISA assay following the instructions of the manufacturer (Endogen). The cytokines tested were IL-1β, IL-4, IL-8, IL-10, IL-12, IFN-γ, TNF-α, and the chemokines RANTES and MCP-1. Negative controls were cells incubated in medium containing polymixin B at 10 μg/ml, and positive controls were cells incubated with bacterial LPS at the low ng/ml range (for PBMC or HIMEC) or in the μg/ml range for carcinoma T-24 cells. In some experiments, IL-1β, or TNFα were used as positive control for cytokine release."}, "PC12 cells": {"system": "PC12 cells", "assay": "Neurite outgrowth assay in PC12 cells", "assay_type": "cell-based, rat", "source_text": "PC12 cells were obtained from ATCC (Manassas, Va. (Accession No. CRL-1721)) and cultured on collagen-coated dishes in RPMI 1640 supplemented with 10% horse serum and 5% fetal bovine serum (Greene, L. A. and Tishler, A. S., Proc. Natl. Acad. Sci. USA, 73: 2424-2428 (1976)). For differentiation and survival experiments, cells were washed three times in serum-free RPMI/0.2% BSA, plated in the same medium in collagen-coated plastic dishes at 2×10^5/ml, without and with growth factors, TS, recombinant proteins, synthetic peptides, for the time and concentrations indicated in the Figures.\n96-well microtiter plates were coated overnight at 4° C. with the TS or peptides or fragments thereof, or with control proteins laminin (Ln) or bovine serum albumin (BSA) at 500 μg/ml. After removing the compounds, the plates were further incubated with 1% BSA for 1 hour at room temperature and immediately used as substratum for PC12 or N18 (Prasad, K. N., Biol Rev Camb Philos Soc, 66:431-451 (1991)) cells in serum-free RPMI/0.2% BSA. Neurite outgrowth was measured using a phase-contrast microscope 17 hours later."}, "[4]": {"system": "human intestinal microvascular endothelial cells (HIMEC)", "assay": "IL-6 secretion by HIMEC (ELISA)", "assay_type": "cell-based", "method": "(§2) Primary cultures of human intestinal microvascular endothelial cells (HIMEC) isolated from normal jejunal mucosa/submucosal tissue were prepared as described (Strong et al., Gastroenterology 114: 1244-1256 (1998)). The HIMEC were cultured in fibronectin-coated plasticware in MCDB medium (Sigma) supplemented with 20% FBS, 90 μg/ml heparin and 50 μg/ml endothelial cell growth factor (Sigma). T-24 cells (ATCC Accession No. HTB-4) were cultured in M199 medium supplemented with 10% FBS. PBMC were purified by Ficoll-Paque gradient as described (Current Protocols in Immunology, pp 7.1.1-7.1.2). Vero cells (ATCC Accession No. CCL-81) were grown in RPMI medium with 5% Nu serum and infected with the Silvio X-10/4 of T. cruzi as described previously (Chuenkova et al., J. Exp. Med. 181: 1693-1703, (1995)).\nas §1"}, "normal human neutrophils": {"system": "normal human neutrophils", "assay": "IL-6 production by normal human neutrophils", "assay_type": "cell-based"}, "[5]": {"system": "peripheral blood mononuclear cells (PBMC)", "assay": "IL-6 secretion by PBMC (ELISA)", "assay_type": "cell-based, human", "set-up": "IL-6 secretion by PBMC: dose or concentration left out as unconfirmed", "method": "as §2, §1\nTR peptides (Table 2) were synthesized at the Tufts Synthesis Facility (Boston, Mass.). Each peptide was purified by HPLC, and the number of amino acids and molecular weight of each peptide verified by mass spectrometry. Peptides were dissolved in growth medium (10% FCS in RPMI) and added at various concentrations to 1×10^6 PBMC/well in 24-well plates. After 24 hrs, IL-6 was assayed by ELISA in the conditioned supernatants."}}, "note": "“Also recorded” adds a separate entry of the source."}
{"molecule": "B1", "values": [{"measurement": "Akt kinase activity in control GFP-transfected Schwann cells", "setting": "[1]", "value": "stimulation of Akt activity"}, {"measurement": "Akt kinase activity in Schwann cells over expressing AktKI", "setting": "[1]; listed as CD", "value": "inability of CD to enhance endogenous Akt enzymatic activity; also recorded: did not activate Akt kinase"}, {"measurement": "Akt phosphorylation in Schwann cells transfected with PTEN mutant pG129R", "setting": "[2]; CD 500 ng/ml", "value": "did not detectably enhance"}, {"measurement": "phospho-Akt in Schwann cells transfected with empty vector (neo)", "setting": "[2]; CD 500 ng/ml", "value": "boosted levels of phospho-Akt"}, {"measurement": "time after which phospho-Akt not detected", "setting": "[2]; CD 500 ng/ml", "value": 15, "unit": "min"}, {"measurement": "time to activation of Schwann cell Akt kinase", "setting": "[2]; CD 500 ng/ml", "value": "1 to 5", "unit": "min"}, {"measurement": "phosphorylation/activation of Akt kinase in human Schwann cells", "setting": "[2]; CD 500 ng/ml where stated, Western blot P-Akt (Ser473), listed as CD", "value": "induced transient phosphorylation of Akt kinase"}, {"measurement": "phospho-Akt in Schwann cells over expressing PTEN", "setting": "[2]; CD 500 ng/ml, listed as CD", "value": "did not result in the generation of phospho-Akt; also recorded: did not induce phosphorylation of Akt kinase"}]}
{"molecule": "B2", "values": [{"measurement": "proliferation/growth of IL-6-dependent DS-1 cells", "setting": "DS-1 B-lymphoma cells", "value": "did not restore growth of the DS-1 cells; also recorded: did not induce proliferation"}, {"measurement": "concentration of other cytokines (IL-1β, IL-4, IL-8, IL-10, IL-12, INF-γ, TNF-α, RANTES, MCP-1) in HIMEC supernatants", "setting": "[3]", "value": "did not increase"}, {"measurement": "concentration range at which TS was active in neurite extension", "setting": "PC12 cells", "value": 0.125, "unit": "nM"}, {"measurement": "time PC12 neurites remained extended", "setting": "PC12 cells; after a single dose of TS", "value": "about 24 hours"}, {"measurement": "time until PC12 neurites became visible", "setting": "PC12 cells; after a single dose of TS", "value": 3, "unit": "h"}, {"measurement": "neurite outgrowth in PC12 cells", "setting": "PC12 cells; neurite outgrowth assay, concentration not given", "value": "induced neurite outgrowth"}, {"measurement": "neurite outgrowth in PC12 cells", "setting": "PC12 cells; soluble in serum-free RPMI-1640/0.2% BSA, collagen coated dishes, 16 hours, NGF 0.1 μg/ml, VCNA 2.4 μg/ml, TS 1 μg/ml", "value": "induces neurite outgrowth"}, {"measurement": "IL-6 secretion by HIMEC", "setting": "[4]; 24 hrs culture", "value": "potently and specifically induced IL-6 secretion; also recorded: elevated in the conditioned supernatants in a manner dependent on the TS input"}, {"measurement": "bacterial LPS concentration inducing the same quantity of IL-6 in HIMEC", "setting": "[4]; TS 1 μg/ml", "value": 50, "unit": "ng/mL"}, {"measurement": "stimulation time for maximum IL-6 secretion in HIMEC", "setting": "[4]; TS 1 μg/ml", "value": 24, "unit": "h"}, {"measurement": "IL-6 production by normal human neutrophils", "setting": "normal human neutrophils", "value": "did not produce detectable IL-6"}, {"measurement": "IL-6 secretion by PBMC", "setting": "[5]; 24 hrs culture", "value": "potently and specifically induced IL-6 secretion; also recorded: stimulated IL-6 release"}, {"measurement": "stimulation time for maximum IL-6 secretion in PBMC", "setting": "[5]; TS 1 μg/ml", "value": 24, "unit": "h"}]}
